The results in this text go back to the Human Domainome abundance scans (Beltran et al. 2025).

B1: Ubiquitin-protein ligase residues 30 to 86; numbered along this chain, Q05086 (parent)
chain: KHLIERYYHQLTEGCGNEACTNEFCASCPTFLRMDNNAAAIKALELYKINAKLCDPH

± gives the uncertainty stated by the source.

In the data set the parent is B1. As to the kind of experiment: abundance fitness (aPCA) (normalised: wild type 0, dead -1); higher = more abundant; growth selection in yeast, the domain comes from the species named. The following applies: Homo sapiens.
For the variant KHLIERYRHQLTEGCGNEACTNEFCASCPTFLRMDNNAAAIKALELYKINAKLCDPH [Y8R], the abundance fitness was 0.028 ± 0.049. The value for KHLIERYDHQLTEGCGNEACTNEFCASCPTFLRMDNNAAAIKALELYKINAKLCDPH [Y8D] was -0.513 ± 0.096; that for KHLIERYPHQLTEGCGNEACTNEFCASCPTFLRMDNNAAAIKALELYKINAKLCDPH [Y8P] was -0.757 ± 0.11. Consider KHLIERYIHQLTEGCGNEACTNEFCASCPTFLRMDNNAAAIKALELYKINAKLCDPH [Y8I], for which the abundance fitness came out at 0.018 ± 0.094. As for KHLIERYNHQLTEGCGNEACTNEFCASCPTFLRMDNNAAAIKALELYKINAKLCDPH [Y8N], the figure is -0.097 ± 0.084; as for KHLIERYTHQLTEGCGNEACTNEFCASCPTFLRMDNNAAAIKALELYKINAKLCDPH [Y8T], 0.091 ± 0.069; as for KHLIERYAHQLTEGCGNEACTNEFCASCPTFLRMDNNAAAIKALELYKINAKLCDPH [Y8A], -0.06 ± 0.07. As for KHLIERYEHQLTEGCGNEACTNEFCASCPTFLRMDNNAAAIKALELYKINAKLCDPH [Y8E], the figure is -0.027 ± 0.07; as for KHLIERYGHQLTEGCGNEACTNEFCASCPTFLRMDNNAAAIKALELYKINAKLCDPH [Y8G], -0.212 ± 0.051; as for KHLIERYLHQLTEGCGNEACTNEFCASCPTFLRMDNNAAAIKALELYKINAKLCDPH [Y8L], 0.045 ± 0.057. In the case of KHLIERYHHQLTEGCGNEACTNEFCASCPTFLRMDNNAAAIKALELYKINAKLCDPH [Y8H], the abundance fitness is -0.015 ± 0.13. Turning to KHLIERYQHQLTEGCGNEACTNEFCASCPTFLRMDNNAAAIKALELYKINAKLCDPH [Y8Q], the abundance fitness was found to be 0.116 ± 0.094. Consider KHLIERYWHQLTEGCGNEACTNEFCASCPTFLRMDNNAAAIKALELYKINAKLCDPH [Y8W], for which the abundance fitness was -0.181 ± 0.065. The value for KHLIERYVHQLTEGCGNEACTNEFCASCPTFLRMDNNAAAIKALELYKINAKLCDPH [Y8V] was -0.015 ± 0.057; that for KHLIERYFHQLTEGCGNEACTNEFCASCPTFLRMDNNAAAIKALELYKINAKLCDPH [Y8F] was -0.138 ± 0.1. Regarding KHLIERYKHQLTEGCGNEACTNEFCASCPTFLRMDNNAAAIKALELYKINAKLCDPH [Y8K], the abundance fitness stood at 0.054 ± 0.081. In the case of KHLIERYSHQLTEGCGNEACTNEFCASCPTFLRMDNNAAAIKALELYKINAKLCDPH [Y8S], the abundance fitness is -0.06 ± 0.052. As for KHLIERYYHFLTEGCGNEACTNEFCASCPTFLRMDNNAAAIKALELYKINAKLCDPH [Q10F], the figure is -0.329 ± 0.099. Take KHLIERYYHNLTEGCGNEACTNEFCASCPTFLRMDNNAAAIKALELYKINAKLCDPH [Q10N]: the abundance fitness is -0.127 ± 0.092. Take KHLIERYYHHLTEGCGNEACTNEFCASCPTFLRMDNNAAAIKALELYKINAKLCDPH [Q10H]: the abundance fitness is -0.148 ± 0.099. KHLIERYYHDLTEGCGNEACTNEFCASCPTFLRMDNNAAAIKALELYKINAKLCDPH [Q10D]: the abundance fitness is -0.485 ± 0.1. Consider KHLIERYYHRLTEGCGNEACTNEFCASCPTFLRMDNNAAAIKALELYKINAKLCDPH [Q10R], for which the abundance fitness was -0.07 ± 0.049. As for KHLIERYYHALTEGCGNEACTNEFCASCPTFLRMDNNAAAIKALELYKINAKLCDPH [Q10A], the figure is -0.13 ± 0.063; as for KHLIERYYHTLTEGCGNEACTNEFCASCPTFLRMDNNAAAIKALELYKINAKLCDPH [Q10T], -0.123 ± 0.07; as for KHLIERYYHCLTEGCGNEACTNEFCASCPTFLRMDNNAAAIKALELYKINAKLCDPH [Q10C], -0.274 ± 0.085. KHLIERYYHELTEGCGNEACTNEFCASCPTFLRMDNNAAAIKALELYKINAKLCDPH [Q10E]: the abundance fitness is -0.868 ± 0.095. As for KHLIERYYHVLTEGCGNEACTNEFCASCPTFLRMDNNAAAIKALELYKINAKLCDPH [Q10V], the abundance fitness is -0.253 ± 0.052. The value for KHLIERYYHYLTEGCGNEACTNEFCASCPTFLRMDNNAAAIKALELYKINAKLCDPH [Q10Y] was -0.277 ± 0.11. For KHLIERYYHILTEGCGNEACTNEFCASCPTFLRMDNNAAAIKALELYKINAKLCDPH [Q10I], the abundance fitness is -0.15 ± 0.089. Take KHLIERYYHPLTEGCGNEACTNEFCASCPTFLRMDNNAAAIKALELYKINAKLCDPH [Q10P]: the abundance fitness was -0.86 ± 0.095. As for KHLIERYYHLLTEGCGNEACTNEFCASCPTFLRMDNNAAAIKALELYKINAKLCDPH [Q10L], the figure is -0.198 ± 0.055; as for KHLIERYYHKLTEGCGNEACTNEFCASCPTFLRMDNNAAAIKALELYKINAKLCDPH [Q10K], -0.5 ± 0.086. As for KHLIERYYHWLTEGCGNEACTNEFCASCPTFLRMDNNAAAIKALELYKINAKLCDPH [Q10W], the abundance fitness is -0.765 ± 0.079. The value for KHLIERYYHGLTEGCGNEACTNEFCASCPTFLRMDNNAAAIKALELYKINAKLCDPH [Q10G] was -0.311 ± 0.052; that for KHLIERYYHSLTEGCGNEACTNEFCASCPTFLRMDNNAAAIKALELYKINAKLCDPH [Q10S] was -0.093 ± 0.064. The value for KHLIERYYVQLTEGCGNEACTNEFCASCPTFLRMDNNAAAIKALELYKINAKLCDPH [H9V] was -0.014 ± 0.059. For the variant KHLIERYYRQLTEGCGNEACTNEFCASCPTFLRMDNNAAAIKALELYKINAKLCDPH [H9R], the abundance fitness was determined as 0.025 ± 0.047. Regarding KHLIERYYYQLTEGCGNEACTNEFCASCPTFLRMDNNAAAIKALELYKINAKLCDPH [H9Y], the abundance fitness was -0.123 ± 0.066. As for KHLIERYYDQLTEGCGNEACTNEFCASCPTFLRMDNNAAAIKALELYKINAKLCDPH [H9D], the figure is -0.189 ± 0.091; as for KHLIERYYQQLTEGCGNEACTNEFCASCPTFLRMDNNAAAIKALELYKINAKLCDPH [H9Q], 0.05 ± 0.072; as for KHLIERYYFQLTEGCGNEACTNEFCASCPTFLRMDNNAAAIKALELYKINAKLCDPH [H9F], -0.12 ± 0.088.

KHLIERYYWQLTEGCGNEACTNEFCASCPTFLRMDNNAAAIKALELYKINAKLCDPH [H9W]: the abundance fitness was -0.055 ± 0.059. The value for KHLIERYYCQLTEGCGNEACTNEFCASCPTFLRMDNNAAAIKALELYKINAKLCDPH [H9C] was -0.034 ± 0.071; that for KHLIERYYTQLTEGCGNEACTNEFCASCPTFLRMDNNAAAIKALELYKINAKLCDPH [H9T] was 0.032 ± 0.063; that for KHLIERYYKQLTEGCGNEACTNEFCASCPTFLRMDNNAAAIKALELYKINAKLCDPH [H9K] was 0.077 ± 0.066. Regarding KHLIERYYLQLTEGCGNEACTNEFCASCPTFLRMDNNAAAIKALELYKINAKLCDPH [H9L], the abundance fitness came to 0.093 ± 0.06.
